One test addresses T1, Human CD3 E+G HuFc-6xHis (human).
T1 construct: also called hu CD3εγ-Fc
Description: SPR (ProteOn XPR36), HuCD3E_HuCD3G-Fc amine-coupled, bispecific as analyte, Example 4B. Summed up:
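SPR kinetics with the bispecific constructs flowed as analyte over a directly amine-coupled (pH 4.5 acetate) human CD3εγ-Fc surface. Association runs 600 s and dissociation 1800 s, at 30 μl/min in PBS-T-EDTA.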

In test [1] the target is T2, human DLL3 (endogenous, on SCLC cell lines NCI-H82 and SHP77 and in SCLC tissue) (human, UniProt Q9NYJ7 27-618).
T2 construct: whole, on cells; also called SCLC cell lines expressing DLL3
T2 sequence (looked up): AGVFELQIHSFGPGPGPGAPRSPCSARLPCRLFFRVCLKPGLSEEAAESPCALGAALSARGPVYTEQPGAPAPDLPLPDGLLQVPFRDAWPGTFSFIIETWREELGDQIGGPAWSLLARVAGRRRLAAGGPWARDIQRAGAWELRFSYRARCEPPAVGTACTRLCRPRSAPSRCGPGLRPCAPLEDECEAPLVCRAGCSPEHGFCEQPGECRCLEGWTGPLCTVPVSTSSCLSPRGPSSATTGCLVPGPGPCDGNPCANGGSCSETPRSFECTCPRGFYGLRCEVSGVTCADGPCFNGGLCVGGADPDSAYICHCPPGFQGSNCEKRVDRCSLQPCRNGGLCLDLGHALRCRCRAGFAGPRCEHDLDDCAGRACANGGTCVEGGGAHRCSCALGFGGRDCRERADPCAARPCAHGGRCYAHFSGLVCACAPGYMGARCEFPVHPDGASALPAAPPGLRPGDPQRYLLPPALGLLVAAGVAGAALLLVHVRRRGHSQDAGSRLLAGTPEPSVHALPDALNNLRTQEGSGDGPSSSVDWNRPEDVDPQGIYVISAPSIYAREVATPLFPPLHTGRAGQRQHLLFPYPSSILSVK
Description: flow cytometry titration on SHP77 cells, PE anti-human secondary, x-fold over background. The source says:
Cells (T cells or human SCLC cells) were stained with increasing concentrations of two-step purified DLL3/CD3 binding proteins with increasing concentrations in FACS buffer (PBS/0.5% BSA/0.05% sodium azide). Bound molecules were detected with PE-conjugated anti-human secondary antibody (Sigma-Aldrich, #P8047).
(A flow cytometer gives signals particle by particle.)

In a further test the target is T3, Human DLL3-His (human, UniProt Q9NYJ7 27-492).
T3 construct: also called huDLL3-His; hu DLL3
T3 sequence: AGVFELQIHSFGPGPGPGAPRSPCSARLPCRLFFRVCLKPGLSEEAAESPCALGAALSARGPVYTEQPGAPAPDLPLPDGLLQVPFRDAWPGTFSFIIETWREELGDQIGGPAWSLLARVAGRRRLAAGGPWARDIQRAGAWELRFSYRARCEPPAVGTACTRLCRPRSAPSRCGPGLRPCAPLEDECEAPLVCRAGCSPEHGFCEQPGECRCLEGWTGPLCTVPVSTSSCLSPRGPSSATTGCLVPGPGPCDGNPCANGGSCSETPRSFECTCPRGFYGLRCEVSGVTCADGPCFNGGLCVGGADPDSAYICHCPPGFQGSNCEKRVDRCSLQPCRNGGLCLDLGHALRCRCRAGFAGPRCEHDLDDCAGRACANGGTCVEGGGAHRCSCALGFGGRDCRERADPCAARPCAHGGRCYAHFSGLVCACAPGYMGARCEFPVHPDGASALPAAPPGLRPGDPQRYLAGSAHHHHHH
Description: SPR (ProteOn XPR36), bispecific captured on protein A/G, hu DLL3 as analyte, Example 4B. Summed up:
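Bispecific constructs captured on protein A/G for 200 s at 30 μl/min, baseline stabilized with PBS-T-EDTA. Human DLL3 analyte injected 300 s at 30 μl/min; dissociation followed for 1800 s.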

These results are taken from US20220251236A1 (Boehringer Ingelheim, published 2022).

A word on the Kd: it is the concentration at which binding is half-saturated. A low value points to higher affinity. A word on the EC50 (read off the curve): it is the concentration needed to bring the measured effect to its halfway point.

T1 sequence (chain, as listed by the source limits assumed): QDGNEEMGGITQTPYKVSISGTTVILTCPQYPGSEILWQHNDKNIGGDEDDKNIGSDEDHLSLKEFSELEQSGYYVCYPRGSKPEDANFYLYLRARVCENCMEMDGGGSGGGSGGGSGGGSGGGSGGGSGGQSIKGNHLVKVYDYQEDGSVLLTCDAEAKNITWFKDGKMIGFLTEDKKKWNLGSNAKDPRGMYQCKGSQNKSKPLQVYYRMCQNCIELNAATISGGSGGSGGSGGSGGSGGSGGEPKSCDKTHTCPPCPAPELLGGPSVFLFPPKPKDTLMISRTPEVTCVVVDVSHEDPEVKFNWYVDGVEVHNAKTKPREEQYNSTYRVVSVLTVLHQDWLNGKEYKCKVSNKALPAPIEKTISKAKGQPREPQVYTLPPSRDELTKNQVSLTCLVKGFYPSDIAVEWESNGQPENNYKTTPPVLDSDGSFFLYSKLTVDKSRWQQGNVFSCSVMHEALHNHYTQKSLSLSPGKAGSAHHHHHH

B1: DLL3#17/CD3#1 (bispecific antibody, human IgG1, kappa, lambda, L234A L235A)
chain 1: DIQMTQSPASLAASVGETVTITCRASENIYYSLAWYQQKQGKSPQLLIYNTNSLEDGVPSRFSGSGSGTQYSMKINSMQPEDTATYFCKQAYDFPLTFGAGTKLELKRTVAAPSVFIFPPSDEQLKSGTASVVCLLNNFYPREAKVQWKVDNALQSGNSQESVTEQDSKDSTYSLSSTLTLSKADYEKHKVYACEVTHQGLSSPVTKSFNRGECGGGGSEGKSSGSGSESKSTEGKSSGSGSESKSTGGGGSQIQLQQSGPEVVKPGASVKISCKASGYTFISYYIHWVKQRPGQGLEWIGWIYPGDGSTNNNEKFKGKTTLTADKSSSTAYMLLSSLTSEDSAVYFCARGEGNAMDDWGQGTSVTVSSASTKGPSVFPLAPSSKSTSGGTAALGCLVKDYFPEPVTVSWNSGALTSGVHTFPAVLQSSGLYSLSSVVTVPSSSLGTQTYICNVNHKPSNTKVDKRVEPKSCDKTHTCPPCPAPEAAGGPSVFLFPPKPKDTLMISRTPEVTCVVVDVSHEDPEVKFNWYVDGVEVHNAKTKPREEQYNSTYRVVSVLTVLHQDWLNGKEYKCKVSNKALPAPIEKTISKAKGQPREPQVYTLPPSREEMTKNQVSLWCLVKGFYPSDIAVEWESNGQPENNYKTTPPVLDSDGSFFLYSKLTVDKSRWQQGNVFSCSVMHEALHNHYTQKSLSLSPG
chain 2: EAVVTQEPSLTVSPGGTVTLTCRSSTGAVTTSNYANWVQEKPGQLPRGLIGGTNKRAPWVPARFSGSLLGGKAALTLSGAQPEDEAEYFCALWYSNLWVFGGGTKLTVLGQPKAAPSVTLFPPSSEELQANKATLVCLISDFYPGAVKVAWKADGSPVNTGVETTTPSKQSNNKYAASSYLSLTPEQWKSHRSYSCQVTHEGSTVEKTVAPAECSGGGGSEGKSSGSGSESKSTEGKSSGSGSESKSTGGGGSEVQLVESGGGLVQPGGSLKLSCAASGFTFNTYAMNWVRQAPGKGLEWVARIRSKYNNYATYYADSVKDRFTISRDDSKNTAYLQMNNLKTEDTAVYYCVRHGNFGNSYVSWFAYWGQGTLVTVSAASTKGPSVFPLAPSSKSTSGGTAALGCLVKDYFPEPVTVSWNSGALTSGVHTFPAVLQSSGLYSLSSVVTVPSSSLGTQTYICNVNHKPSNTKVDKRVEPKSCDKTHTCPPCPAPEAAGGPSVFLFPPKPKDTLMISRTPEVTCVVVDVSHEDPEVKFNWYVDGVEVHNAKTKPREEQYNSTYRVVSVLTVLHQDWLNGKEYKCKVSNKALPAPIEKTISKAKGQPREPQVYTLPPSREEMTKNQVSLSCAVKGFYPSDIAVEWESNGQPENNYKTTPPVLDSDGSFFLVSKLTVDKSRWQQGNVFSCSVMHEALHNRFTQKSLSLSPG
notes: Heterodimer of one DLL3 chain and one CD3 chain (scFab-Fc, knob-in-hole)
Regarding B1, the figures for the Kd with Human CD3 E+G HuFc-6xHis and with Human DLL3-His were 2 nM and below 0.02 nM, respectively. For the same molecule, the concentration for a half-maximal effect (EC50 (read off the curve)) in test [1] is around 2 nM.

B2: DLL3#18/CD3#1 (bispecific antibody, human IgG1, kappa, lambda, L234A L235A)
chain 1: DIQMTQSPASLAASVGETVTITCRASENIYYSLAWYQQKQGKSPQLLIYNANSLEDGVPSRFSGSGSGTQYSMKINNMQPEDTATYFCKQAYDVPLTFGAGTKLELKRTVAAPSVFIFPPSDEQLKSGTASVVCLLNNFYPREAKVQWKVDNALQSGNSQESVTEQDSKDSTYSLSSTLTLSKADYEKHKVYACEVTHQGLSSPVTKSFNRGECGGGGSEGKSSGSGSESKSTEGKSSGSGSESKSTGGGGSQVQLQQSGPDLVKPGASVKMSCEASGYTFTAYFIHWVKQKPGQGLEWIGYIDPFNDDTNYNVKFKGKATLTSDTSSSIAYMELSSLTSEDSSFYYCARGTSATLDYWGHGTTLTVSSASTKGPSVFPLAPSSKSTSGGTAALGCLVKDYFPEPVTVSWNSGALTSGVHTFPAVLQSSGLYSLSSVVTVPSSSLGTQTYICNVNHKPSNTKVDKRVEPKSCDKTHTCPPCPAPEAAGGPSVFLFPPKPKDTLMISRTPEVTCVVVDVSHEDPEVKFNWYVDGVEVHNAKTKPREEQYNSTYRVVSVLTVLHQDWLNGKEYKCKVSNKALPAPIEKTISKAKGQPREPQVYTLPPSREEMTKNQVSLWCLVKGFYPSDIAVEWESNGQPENNYKTTPPVLDSDGSFFLYSKLTVDKSRWQQGNVFSCSVMHEALHNHYTQKSLSLSPG
chain 2: EAVVTQEPSLTVSPGGTVTLTCRSSTGAVTTSNYANWVQEKPGQLPRGLIGGTNKRAPWVPARFSGSLLGGKAALTLSGAQPEDEAEYFCALWYSNLWVFGGGTKLTVLGQPKAAPSVTLFPPSSEELQANKATLVCLISDFYPGAVKVAWKADGSPVNTGVETTTPSKQSNNKYAASSYLSLTPEQWKSHRSYSCQVTHEGSTVEKTVAPAECSGGGGSEGKSSGSGSESKSTEGKSSGSGSESKSTGGGGSEVQLVESGGGLVQPGGSLKLSCAASGFTFNTYAMNWVRQAPGKGLEWVARIRSKYNNYATYYADSVKDRFTISRDDSKNTAYLQMNNLKTEDTAVYYCVRHGNFGNSYVSWFAYWGQGTLVTVSAASTKGPSVFPLAPSSKSTSGGTAALGCLVKDYFPEPVTVSWNSGALTSGVHTFPAVLQSSGLYSLSSVVTVPSSSLGTQTYICNVNHKPSNTKVDKRVEPKSCDKTHTCPPCPAPEAAGGPSVFLFPPKPKDTLMISRTPEVTCVVVDVSHEDPEVKFNWYVDGVEVHNAKTKPREEQYNSTYRVVSVLTVLHQDWLNGKEYKCKVSNKALPAPIEKTISKAKGQPREPQVYTLPPSREEMTKNQVSLSCAVKGFYPSDIAVEWESNGQPENNYKTTPPVLDSDGSFFLVSKLTVDKSRWQQGNVFSCSVMHEALHNRFTQKSLSLSPG
notes: as for B1
With B2, the equilibrium dissociation constant (Kd) was 3 nM with Human CD3 E+G HuFc-6xHis and below 0.02 nM in the test with Human DLL3-His. In test [1], the “EC50 (read off the curve)” value is around 2 nM.

B3: DLL3#13/CD3#1 (bispecific antibody, human IgG1, kappa, lambda, L234A L235A)
chain 1: DVLMTQTPLSLPVSLGDQAAISCRSSQSIVHSNGNTYLEWYLQKPGQSPKVLIYKVSNRFSGVPDRFSGSGSGTDFTLKISRVEAEDLGVYYCFQGSHVPYTFGGGTKLEIKRTVAAPSVFIFPPSDEQLKSGTASVVCLLNNFYPREAKVQWKVDNALQSGNSQESVTEQDSKDSTYSLSSTLTLSKADYEKHKVYACEVTHQGLSSPVTKSFNRGECGGGGSEGKSSGSGSESKSTEGKSSGSGSESKSTGGGGSQIQLVQSGPELKKPGETVKISCKASGYTFTNYGVTWVKQAPGKGLKWMGWINTYSGAPTYADDFNGRFALSLETSASTAYLQINNLKNEDTATYFCARLDDYDLYYFDYWGQGTALTVSSASTKGPSVFPLAPSSKSTSGGTAALGCLVKDYFPEPVTVSWNSGALTSGVHTFPAVLQSSGLYSLSSVVTVPSSSLGTQTYICNVNHKPSNTKVDKRVEPKSCDKTHTCPPCPAPEAAGGPSVFLFPPKPKDTLMISRTPEVTCVVVDVSHEDPEVKFNWYVDGVEVHNAKTKPREEQYNSTYRVVSVLTVLHQDWLNGKEYKCKVSNKALPAPIEKTISKAKGQPREPQVYTLPPSREEMTKNQVSLWCLVKGFYPSDIAVEWESNGQPENNYKTTPPVLDSDGSFFLYSKLTVDKSRWQQGNVFSCSVMHEALHNHYTQKSLSLSPG
chain 2: EAVVTQEPSLTVSPGGTVTLTCRSSTGAVTTSNYANWVQEKPGQLPRGLIGGTNKRAPWVPARFSGSLLGGKAALTLSGAQPEDEAEYFCALWYSNLWVFGGGTKLTVLGQPKAAPSVTLFPPSSEELQANKATLVCLISDFYPGAVKVAWKADGSPVNTGVETTTPSKQSNNKYAASSYLSLTPEQWKSHRSYSCQVTHEGSTVEKTVAPAECSGGGGSEGKSSGSGSESKSTEGKSSGSGSESKSTGGGGSEVQLVESGGGLVQPGGSLKLSCAASGFTFNTYAMNWVRQAPGKGLEWVARIRSKYNNYATYYADSVKDRFTISRDDSKNTAYLQMNNLKTEDTAVYYCVRHGNFGNSYVSWFAYWGQGTLVTVSAASTKGPSVFPLAPSSKSTSGGTAALGCLVKDYFPEPVTVSWNSGALTSGVHTFPAVLQSSGLYSLSSVVTVPSSSLGTQTYICNVNHKPSNTKVDKRVEPKSCDKTHTCPPCPAPEAAGGPSVFLFPPKPKDTLMISRTPEVTCVVVDVSHEDPEVKFNWYVDGVEVHNAKTKPREEQYNSTYRVVSVLTVLHQDWLNGKEYKCKVSNKALPAPIEKTISKAKGQPREPQVYTLPPSREEMTKNQVSLSCAVKGFYPSDIAVEWESNGQPENNYKTTPPVLDSDGSFFLVSKLTVDKSRWQQGNVFSCSVMHEALHNRFTQKSLSLSPG
notes: as for B1
For B3, the Kd with Human CD3 E+G HuFc-6xHis amounted to 3 nM; in the test with Human DLL3-His, 0.023 nM. Moreover, in test [1], the “EC50 (read off the curve)” value is around 2 nM.
